The text below walks through data of US20190144559A1 (Daiichi Sankyo, published 2019).

Assay [1] has as its target T1, Recombinant Human TROP-2 Fc chimera (human, UniProt P09758 27-274, limits assumed).
T1 construct: Used as the analyte in Biacore; also called antigen (Recombinant Human TROP-2 Fc chimera); not shown: Fc part and any linker of the chimera are not described
T1 sequence (looked up): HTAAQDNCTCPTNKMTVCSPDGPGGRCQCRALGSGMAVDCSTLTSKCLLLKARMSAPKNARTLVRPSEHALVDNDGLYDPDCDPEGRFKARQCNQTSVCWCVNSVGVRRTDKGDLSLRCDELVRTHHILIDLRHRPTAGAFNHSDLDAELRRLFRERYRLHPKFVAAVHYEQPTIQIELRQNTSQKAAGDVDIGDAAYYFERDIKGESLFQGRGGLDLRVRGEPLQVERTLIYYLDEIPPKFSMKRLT
Nature of the assay: SPR Biacore 3000, purified antibody captured on anti-human IgG (Fab), antigen as analyte, bivalent model.

Assay [2] concerns the target T1, Recombinant Human TROP-2 Fc chimera. Nature of the assay: SPR Biacore 3000, antibody from culture supernatant captured on anti-human IgG (Fab), antigen as analyte, bivalent model.

B1: hTINA1-H2L1 (antibody, human IgG1, kappa)
heavy: not shown
light: DIQMTQSPSSLSASVGDRVTITCKASQDVSTAVAWYQQKPGKAPKLLIYSASYRYTGVPSRFSGSGSGTDFTLTISSLQPEDFAVYYCQQHYITPLTFGQGTKLEIKRTVAAPSVFIFPPSDEQLKSGTASVVCLLNNFYPREAKVQWKVDNALQSGNSQESVTEQDSKDSTYSLSSTLTLSKADYEKHKVYACEVTHQGLSSPVTKSFNRGEC
notes: Human IgG1/kappa; also called hTINA1 antibody
On to B1, for which the Kd in assay [1] is 30 nM; in assay [2], 69 nM.

B2: hTINA1-H2L2 (antibody, human IgG1, kappa)
heavy: not shown
light: DIVMTQSPSSLSASVGDRVTITCKASQDVSTAVAWYQQKPGKAPKLLIYSASYRYTGVPSRFSGSGSGTDFTLTISSLQPEDFAVYYCQQHYITPLTFGQGTKLEIKRTVAAPSVFIFPPSDEQLKSGTASVVCLLNNFYPREAKVQWKVDNALQSGNSQESVTEQDSKDSTYSLSSTLTLSKADYEKHKVYACEVTHQGLSSPVTKSFNRGEC
notes: as for B1
On to B2, for which the Kd in assay [1] stood at 27 nM; in assay [2], 71 nM.

B3: hTINA1-H3L3 (antibody, human IgG1, kappa, V domains shown)
VH: QIQLVQSGAEVKKPGESVKVSCKASGYTFTTAGMQWVQQMPGKGLEWMGWINTHSGVPKYAEDFKGRVTFSLDTSTSTAYLQLSSLKSEDTAVYYCARSGFGSSYWYFDVWGQGTLVTVSS
VL: DIVMTQSPSSLSASVGDRVTITCKASQDVSTAVAWYQQKPGKQPKLLIYSASYRYTGVPSRFSGSGSGTDFTLTISSLQPEDFAVYYCQQHYITPLTFGQGTKLEIKR
notes: as for B1
Turning to B3, the Kd in assay [1] came to 15 nM; in assay [2] it was 58 nM.

B4: hTINA1-H1L1 (antibody, human IgG1, kappa, V domains shown)
VH: QVQLVQSGAEVKKPGASVKVSCKASGYTFTTAGMQWVRQAPGQGLEWMGWINTHSGVPKYAEDFKGRVTISADTSTSTAYLQLSSLKSEDTAVYYCARSGFGSSYWYFDVWGQGTLVTVSS
VL: DIQMTQSPSSLSASVGDRVTITCKASQDVSTAVAWYQQKPGKAPKLLIYSASYRYTGVPSRFSGSGSGTDFTLTISSLQPEDFAVYYCQQHYITPLTFGQGTKLEIKR
notes: Human IgG1/kappa; also called hTINA1 antibody; humanized TINA1
Take B4: the Kd amounted to 27 nM in assay [1] and 63 nM in assay [2].

B5: cTINA1 antibody (antibody, human IgG1, V domains shown)
VH: QIQLVQSGPELKKPGETVRISCKASGYTFTTAGMQWVQKMPGKGLKWIGWINTHSGVPKYAEDFKGRFAFSLETSASTAYLQISNLKNEDTTTYFCARSGFGSSYWYFDVWGAGTAVTVSS
VL: DIVMTQSHKFMSTSVGDRVSITCKASQDVSTAVAWYQQKPGQSPKLLIYSASYRYTGVPDRFTGSGSGTAFTFTISSVQAEDLAVYYCQQHYITPLTFGAGTKLELKR
notes: Mouse TINA1 variable regions on human IgG1/kappa constant regions; also called human chimeric TINA1 antibody; chimeric TINA1
Regarding B5, the Kd in assay [2] was found to be 56 nM.

B6: hRS7 antibody (antibody, V domains shown)
VH: QVQLQQSGSELKKPGASVKVSCKASGYTFTNYGMNWVKQAPGQGLKWMGWINTYTGEPTYTDDFKGRFAFSLDTSVSTAYLQISSLKADDTAVYFCARGGFGSSYWYFDVWGQGSLVTVSS
VL: DIQLTQSPSSLSASVGDRVSITCKASQDVSIAVAWYQQKPGKAPKLLIYSASYRYTGVPDRFSGSGSGTDFTLTISSLQPEDFAVYYCQQHYITPLTFGAGTKVEIKR
For the molecule B6, the Kd in assay [1] came out at 0.3 nM.
